Series [1] deals with Dbp1-NOX (LCD of Dbp1 from Saccharomyces cerevisiae, residues 1 to 155, fused to the N-terminus of NADH oxidase from Thermus thermophilus) (Saccharomyces cerevisiae | Thermus thermophilus) (UniProt P24784). In words: single-molecule mass photometry; 20 nM protein in low ionic strength buffer (20 mM NaCl), 25 °C, measured over 1 min; Refeyn OneMP.
The next series concerns T1, Dbp1-NOX.
T1 construct: single fusion chain: Dbp1 LCD (1-155) at N-terminus of NOX; E. coli, heat shock and IMAC; dimer 79 kDa; forms condensates/nanoclusters at low salt; with ATP-dependent RNA helicase DBP1 (Saccharomyces cerevisiae)
In words: NADH absorbance decrease at […] nm, Michaelis-Menten fit. The class given is biochemical, Thermus thermophilus. To be noted: 1 µM enzyme, two-phase micron-sized condensates (apparent, average of dilute and dense phase); 100 µM FAD, O2; 25 mM Tris, 20 mM NaCl, pH 7.5; NADH 50-200 µM.

Series [2] concerns the molecule itself. In words: single-molecule mass photometry; 20 nM protein in low ionic strength buffer (20 mM NaCl), 25 °C, measured over 1 min; Refeyn OneMP.
Substrate in the series “purified protein”: NC(=O)C1=CN([C@@H]2O[C@H](COP(=O)(O)OP(=O)(O)OC[C@H]3O[C@@H](n4cnc5c(N)ncnc54)[C@H](O)[C@@H]3O)[C@@H](O)[C@H]2O)C=CC1
In words: purified protein. It counts as biochemical, Thermus thermophilus. To be noted: 1 µM enzyme, homogeneous, 100 µM FAD, O2, 25 mM Tris, 20 mM NaCl, pH 7.5, NADH 50-200 µM.

For orientation: stoichiometry N means a count of units in the complex or per binding partner. Consider “Dbp1-NOX (LCD of Dbp1 from Saccharomyces cerevisiae, residues 1 to 155, fused to the N-terminus of NADH oxidase from Thermus thermophilus) (from UniProt P24784 1-155) (enzyme)”, for which the stoichiometry N in series [1] came out at 2.
The term Km denotes the substrate concentration at which the rate is half of its maximum. Regarding `NC(=O)C1=CN([C@@H]2O[C@H](COP(=O)(O)OP(=O)(O)OC[C@H]3O[C@@H](n4cnc5c(N)ncnc54)[C@H](O)[C@@H]3O)[C@@H](O)[C@H]2O)C=CC1` [NADH], in the series on Dbp1-NOX, the Km worked out at 89 ± 34 µM.

B1: NADH oxidase from Thermus thermophilus (NOX) (enzyme)
chain: MEATLPVLDAKTAALKRRSIRRYRKDPVPEGLLREILEAALRAPSAWNLQPWRIVVVRDPATKRALREAAFGQAHVEEAPVVLVLYADLEDALAHLDEVIHPGVQGERREAQKQAIQRAFAAMGQEARKAWASGQSYILLGYLLLLLEAYGLGSVPMLGFDPERVRAILGLPSHAAIPALVALGYPAEEGYPSHRLPLERVVLWR
notes: NADH oxidase (NOX) from Thermus thermophilus; codon-optimised gene cloned into pET-15b; Purified by heat shock only, so it is not clear whether a His tag is on this protein; The dimer peak in mass photometry is printed as 45 kDa; also called unconjugated NOX; source: E. coli BL21-GOLD (DE3), purified (heat shock method)
By kcat is commonly meant the maximal rate divided by the concentration of active sites. In the case of B1, the “stoichiometry N” value in series [2] amounted to 2. In “purified protein”, the Km was 81 ± 36 µM and the catalytic constant (kcat) stood at 1.12 ± 0.21 s⁻¹.

The values above are taken from article PMC11026464, “Local environment in biomolecular condensates modulates enzymatic activity across length scales” (Nature Communications, 2024).
